Results from patent publication US6348311B1, “ATM kinase modulation for screening and therapies” (St. Jude Childre's Research Hospital, priority 1999, dated 2002).

Legend:
[1] = test system: ATM kinase; test: ATM immunoprecipitated from SY5Y neuroblastoma cells after IGF-I, in vitro kinase assay with GST-p53; format: cell-based; conditions: differentiated SY5Y cells, 10nM IGF-I
Experimental: Since the growth factor and survival factor insulin-like growth factor (IGF)-I activates cellular signaling in a manner similar to insulin, the insulin observations above led us to also investigate whether IGF-I might activate ATM kinase. […] Undifferentiated and differentiated SY5Y cells were treated with IGF-I and ATM activation was assessed.
ATM was immunoprecipitated from either undifferentiated or differentiated SY5Y neuroblastoma cells after treatment with 10nM IGF-I (control cells were untreated). The immunoprecipitated ATM was then used in an in vitro kinase assay with the GST-p53 protein as the substrate. Equivalent amounts of ATM and GST-p53 were used.

[2] = test system: ATM kinase; test: ATM immunoprecipitated from differentiated 3T3-L1 cells with or without insulin, in vitro kinase assay with GST-4E-BP1; format: cell-based; conditions: GST-4E-BP1 substrate
Source text: ATM was immunoprecipitated from 3T3-L1 after differentiation and without (−) or with (+) exposure to insulin. The immunoprecipitated ATM was then used in an in vitro kinase assay with GST-4E-BP1 protein as the substrate. Equivalent amounts of ATM and GST-4E-BP1 were used.

[3] = test system: 4E-BP1 bound to eIF-4E; test: Insulin induced release of 4E-BP1 from eIF-4E in fibroblasts (Western blot); format: cell-based, mice
Experimental: Fibroblasts from normal or AT mice were treated with (+) or without (−) insulin and total cellular and complexed eIF-4E and 4E-BP1 were examined by Western blot. Total cellular eIF-4E and 4E-BP1 were unchanged by insulin treatment. The amount of 4E-BP1 bound to eIF-4E was examined by immunoprecipitating eIF-4E with a methyl-G column and then blotting for both proteins.

Substance	ATM kinase activity after IGF-I treatment [1]	ATM kinase activity after insulin treatment [2]	release of 4E-BP1 from eIF-4E ([3]; AT cells (A38))	release of 4E-BP1 from eIF-4E ([3]; normal cells (A29))
IGF-I: insulin-like growth factor (IGF)-I, growth and neuronal survival factor	significantly enhanced			
Insulin: insulin		significantly enhanced	much less 4E-BP1 was released	caused a release of 4E-BP1 from eIF-4E
